Test results reported in US20200317768A1 (published 2020).

T1: human FcγRIIaR extracellular domain, His-tagged (human, UniProt P12318 34-217)
T1 construct: also called human FcγRIIa (type R); FcgRIIaR; not shown: C-terminal His-tag
T1 chain: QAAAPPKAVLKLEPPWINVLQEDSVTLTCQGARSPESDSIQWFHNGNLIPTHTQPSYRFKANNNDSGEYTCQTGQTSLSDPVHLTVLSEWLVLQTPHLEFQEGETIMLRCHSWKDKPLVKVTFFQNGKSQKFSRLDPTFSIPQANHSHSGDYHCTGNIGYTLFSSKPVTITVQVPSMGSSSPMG


Target: T1, human FcγRIIaR extracellular domain, …
Assay: SPR (BIACORE); KD of SG1 divided by KD of variant;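 further: relative to parent M103205H795-SG1 carrying the SG1 human heavy chain constant region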

Binder	KD fold (SG1 = 1)
M103205H795-MY466/M103202L889-SK1 (antibody, human IgG1, kappa, copies: 2 + 2) heavy: QVTLKESGPVLVKPTETLTLTCTVSGIDLSHDDISWVRQAPGKGLEWVGIISYAGSTYYASWAKGRLTISKDTSKNQVVLTMTNMDPVDTATYYCARGVPAYSHGGDLWGQGTLVTVSSASTKGPSVFPLAPSSKSTSGGTAALGCLVKDYFPEPVTVSWNSGALTSGVHTFPAVLQSSGLYSLSSVVTVPSSSLGTQTYICNVNHKPSNTKVDKKVEPKSCDKTHTCPPCPLPELLTGPSVFLFPPKPKDTLMISRTPEVTCVVVDVSDEDPEVKFNWYVDGVEVHNAKTKPREEQYNSTYRVVSVLTVLHQDWLNGKEYKCKVSNKALPKPIEKTISKAKGQPREPQVYTLPPSREEMTKNQVSLTCLVKGFYPSDIAVEWESNGQPENNYKTTPPVLDSDGSFFLYSKLTVDKSRWQQGNVFSCSVMHEALHNHYTQKSLSLSP light: DIVMTQSPATLSLSPGERATLSCTSSQSVYHANWLSWFQQKPGQPPKLLIYWASTLAYGVPSRFSGSGSGTDFTLTISSLQPEDAATYYCAGGYGGGRYAFGQGTKVEIKRTVAAPSVFIFPPSDEQLKSGTASVVCLLNNFYPREAKVQWKVDNALQSGNSQESVTEQDSKDSTYSLSSTLTLSKADYEKHKVYACEVTHQGLSSPVTKSFNRGEC	4.2 fold
M103205H795-MY467/M103202L889-SK1 (antibody, human IgG1, kappa, copies: 2 + 2) heavy: QVTLKESGPVLVKPTETLTLTCTVSGIDLSHDDISWVRQAPGKGLEWVGIISYAGSTYYASWAKGRLTISKDTSKNQVVLTMTNMDPVDTATYYCARGVPAYSHGGDLWGQGTLVTVSSASTKGPSVFPLAPSSKSTSGGTAALGCLVKDYFPEPVTVSWNSGALTSGVHTFPAVLQSSGLYSLSSVVTVPSSSLGTQTYICNVNHKPSNTKVDKKVEPKSCDKTHTCPPCPMPELLTGPSVFLFPPKPKDTLMISRTPEVTCVVVDVSDEDPEVKFNWYVDGVEVHNAKTKPREEQYNSTYRVVSVLTVLHQDWLNGKEYKCKVSNKALPKPIEKTISKAKGQPREPQVYTLPPSREEMTKNQVSLTCLVKGFYPSDIAVEWESNGQPENNYKTTPPVLDSDGSFFLYSKLTVDKSRWQQGNVFSCSVMHEALHNHYTQKSLSLSP light: DIVMTQSPATLSLSPGERATLSCTSSQSVYHANWLSWFQQKPGQPPKLLIYWASTLAYGVPSRFSGSGSGTDFTLTISSLQPEDAATYYCAGGYGGGRYAFGQGTKVEIKRTVAAPSVFIFPPSDEQLKSGTASVVCLLNNFYPREAKVQWKVDNALQSGNSQESVTEQDSKDSTYSLSSTLTLSKADYEKHKVYACEVTHQGLSSPVTKSFNRGEC	3.1 fold

Continued, values first:

KD fold (SG1 = 1)	Binder
2.5 fold	M103205H795-MY470/M103202L889-SK1 (antibody, human IgG1, kappa, copies: 2 + 2) heavy: QVTLKESGPVLVKPTETLTLTCTVSGIDLSHDDISWVRQAPGKGLEWVGIISYAGSTYYASWAKGRLTISKDTSKNQVVLTMTNMDPVDTATYYCARGVPAYSHGGDLWGQGTLVTVSSASTKGPSVFPLAPSSKSTSGGTAALGCLVKDYFPEPVTVSWNSGALTSGVHTFPAVLQSSGLYSLSSVVTVPSSSLGTQTYICNVNHKPSNTKVDKKVEPKSCDKTHTCPPCPQPELLTGPSVFLFPPKPKDTLMISRTPEVTCVVVDVSDEDPEVKFNWYVDGVEVHNAKTKPREEQYNSTYRVVSVLTVLHQDWLNGKEYKCKVSNKALPKPIEKTISKAKGQPREPQVYTLPPSREEMTKNQVSLTCLVKGFYPSDIAVEWESNGQPENNYKTTPPVLDSDGSFFLYSKLTVDKSRWQQGNVFSCSVMHEALHNHYTQKSLSLSP light: DIVMTQSPATLSLSPGERATLSCTSSQSVYHANWLSWFQQKPGQPPKLLIYWASTLAYGVPSRFSGSGSGTDFTLTISSLQPEDAATYYCAGGYGGGRYAFGQGTKVEIKRTVAAPSVFIFPPSDEQLKSGTASVVCLLNNFYPREAKVQWKVDNALQSGNSQESVTEQDSKDSTYSLSSTLTLSKADYEKHKVYACEVTHQGLSSPVTKSFNRGEC
2.6 fold	M103205H795-MY469/M103202L889-SK1 (antibody, human IgG1, kappa, copies: 2 + 2) heavy: QVTLKESGPVLVKPTETLTLTCTVSGIDLSHDDISWVRQAPGKGLEWVGIISYAGSTYYASWAKGRLTISKDTSKNQVVLTMTNMDPVDTATYYCARGVPAYSHGGDLWGQGTLVTVSSASTKGPSVFPLAPSSKSTSGGTAALGCLVKDYFPEPVTVSWNSGALTSGVHTFPAVLQSSGLYSLSSVVTVPSSSLGTQTYICNVNHKPSNTKVDKKVEPKSCDKTHTCPPCPPPELLTGPSVFLFPPKPKDTLMISRTPEVTCVVVDVSDEDPEVKFNWYVDGVEVHNAKTKPREEQYNSTYRVVSVLTVLHQDWLNGKEYKCKVSNKALPKPIEKTISKAKGQPREPQVYTLPPSREEMTKNQVSLTCLVKGFYPSDIAVEWESNGQPENNYKTTPPVLDSDGSFFLYSKLTVDKSRWQQGNVFSCSVMHEALHNHYTQKSLSLSP light: DIVMTQSPATLSLSPGERATLSCTSSQSVYHANWLSWFQQKPGQPPKLLIYWASTLAYGVPSRFSGSGSGTDFTLTISSLQPEDAATYYCAGGYGGGRYAFGQGTKVEIKRTVAAPSVFIFPPSDEQLKSGTASVVCLLNNFYPREAKVQWKVDNALQSGNSQESVTEQDSKDSTYSLSSTLTLSKADYEKHKVYACEVTHQGLSSPVTKSFNRGEC
2.3 fold	M103205H795-MY468/M103202L889-SK1 (antibody, human IgG1, kappa, copies: 2 + 2) heavy: QVTLKESGPVLVKPTETLTLTCTVSGIDLSHDDISWVRQAPGKGLEWVGIISYAGSTYYASWAKGRLTISKDTSKNQVVLTMTNMDPVDTATYYCARGVPAYSHGGDLWGQGTLVTVSSASTKGPSVFPLAPSSKSTSGGTAALGCLVKDYFPEPVTVSWNSGALTSGVHTFPAVLQSSGLYSLSSVVTVPSSSLGTQTYICNVNHKPSNTKVDKKVEPKSCDKTHTCPPCPNPELLTGPSVFLFPPKPKDTLMISRTPEVTCVVVDVSDEDPEVKFNWYVDGVEVHNAKTKPREEQYNSTYRVVSVLTVLHQDWLNGKEYKCKVSNKALPKPIEKTISKAKGQPREPQVYTLPPSREEMTKNQVSLTCLVKGFYPSDIAVEWESNGQPENNYKTTPPVLDSDGSFFLYSKLTVDKSRWQQGNVFSCSVMHEALHNHYTQKSLSLSP light: DIVMTQSPATLSLSPGERATLSCTSSQSVYHANWLSWFQQKPGQPPKLLIYWASTLAYGVPSRFSGSGSGTDFTLTISSLQPEDAATYYCAGGYGGGRYAFGQGTKVEIKRTVAAPSVFIFPPSDEQLKSGTASVVCLLNNFYPREAKVQWKVDNALQSGNSQESVTEQDSKDSTYSLSSTLTLSKADYEKHKVYACEVTHQGLSSPVTKSFNRGEC
2.5 fold	M103205H795-MY471/M103202L889-SK1 (antibody, human IgG1, kappa, copies: 2 + 2) heavy: QVTLKESGPVLVKPTETLTLTCTVSGIDLSHDDISWVRQAPGKGLEWVGIISYAGSTYYASWAKGRLTISKDTSKNQVVLTMTNMDPVDTATYYCARGVPAYSHGGDLWGQGTLVTVSSASTKGPSVFPLAPSSKSTSGGTAALGCLVKDYFPEPVTVSWNSGALTSGVHTFPAVLQSSGLYSLSSVVTVPSSSLGTQTYICNVNHKPSNTKVDKKVEPKSCDKTHTCPPCPRPELLTGPSVFLFPPKPKDTLMISRTPEVTCVVVDVSDEDPEVKFNWYVDGVEVHNAKTKPREEQYNSTYRVVSVLTVLHQDWLNGKEYKCKVSNKALPKPIEKTISKAKGQPREPQVYTLPPSREEMTKNQVSLTCLVKGFYPSDIAVEWESNGQPENNYKTTPPVLDSDGSFFLYSKLTVDKSRWQQGNVFSCSVMHEALHNHYTQKSLSLSP light: DIVMTQSPATLSLSPGERATLSCTSSQSVYHANWLSWFQQKPGQPPKLLIYWASTLAYGVPSRFSGSGSGTDFTLTISSLQPEDAATYYCAGGYGGGRYAFGQGTKVEIKRTVAAPSVFIFPPSDEQLKSGTASVVCLLNNFYPREAKVQWKVDNALQSGNSQESVTEQDSKDSTYSLSSTLTLSKADYEKHKVYACEVTHQGLSSPVTKSFNRGEC
